Measured values: patent US8603466 (KING S COLLEGE LONDON, dated 2013)
Changes are numbered by the printed parent chain.

B1: KSAb1 IgG (antibody, V domains shown)
VH: EVQLQQSGPELVKPGASMKISCKASGYSFSAYTMNWVKQSHGKNLEWIGLINPYNGGTNYNQEFEGKATLTVNKSSNTAFMELLSLTSDDSAVYYCARRDWDYFDYWGQGTTLTVSS
VL: DIVMTQSQKFMSTSVGDRVSIICKASQNVGTFVAWYQQKPGQSPKLLVYSASNRYTGVPDRFTGSGSGTDFTLTINNMQSEDLADYFCRQYSSYPYTFGGGTKLEI
notes: also called mAb9; IgG 9
B2: KSAb2 IgG (antibody, V domains shown)
VH: B1 VH with S30T, S40T, E63K, G66D, N73D, F80Y, E82D, D89E
VL: DVVMTQSQKFLSTSAGDRVSISCKASQNVGTALAWYQQKPGQSPKLLIYSASNRNTGVPDRFTGRGFGTDFTLTISNMQSEDLADYFCQQYSSYPYTFGGGTRLEI
notes: also called mAb17; IgG17

What was measured:
[1] = target: T1, human TSHR immobilised on coated tubes (TRAK II [DYNOtest human] kit) (human, UniProt P16473 21-764, limits assumed); assay: TBII assay, displacement of 125I-TSH from human TSHR coated tubes (TRAK II DYNOtest human)
T1 construct: Receptor of a bought kit; also called human TSHR coated tubes; immobilized human TSHR

[2] = target: human TSHR on stably transfected CHO cells (human, UniProt P16473 21-764); assay: cell-based or functional assay
[3] = target: T1, human TSHR immobilised on coated tubes …; assay: saturation binding of 125I-IgG on human TSHR coated tubes (TRAK II DYNOtest human); printed as Kd but expressed as reciprocal Kd (L/mol)
Description: Free isotope was removed by gel filtration in SEPHAROSE™ G25 columns and specific activity calculated (7). Antibody affinity was measured by saturation binding analysis. […] The affinity results were expressed as reciprocal Kd values (L/mol).
The labeled IgG and Fab fragments of the mabs were then used as tracers in competition studies to study the epitopes on the receptor. […] Serum from normal individuals, with no family history of autoimmunity were used as controls.

| Binder | IC50 [1] [ng/mL] | EC50 of cAMP stimulation, NaCl-free sucrose HBSS [2] [ng/mL] | EC50 of cAMP stimulation, physiological NaCl HBSS [2] [ng/ml] | IgG concentration giving 3 fold cAMP stimulation [2] [ng/mL] | maximal stimulation of cAMP, fold over basal value [2] [fold over basal] | Ka [3] [M⁻¹] |
| --- | --- | --- | --- | --- | --- | --- |
| B1 | 3.3 | 9.4 | 16.5 | 1.2 | 199 | 4.5e+10 |
| B2 | 10 | 93 | 100 | 2.2 | 183 | 6.25e+10 |
